Patent US20090324573A1, “Pharmaceutical Composition Comprising P43 Protein for the Treatment of Gastric Adenocarcinoma” (priority 2006, published 2009)

How the values were obtained:
Format in all cases: in vivo, BALB/cA bare mouse
Design in all cases: TV d 0 / TV d 21: unit not given here
Conditions in all cases: for RTV: RTV=Vt/V0; for T/C (%): TRTV/CRTV×100; for Weight (g) Final: final body weight; for Weight (g) First: first (baseline) body weight; for TV d 0: d 0, day of first administration
[1] = tested on: human gastric adenocarcinoma SGC-7901; assay: Transplanted tumor of human gastric adenocarcinoma SGC-7901 in bare mouse
Source text: (§1) Animal Resource, Line and Strain: BALB/cA bare mouse, provided by Experimental Animal Center, Chinese Academy of Sciences, Shanghai, China.
Bare mouse transplanted with human gastric adenocarcinoma […] was established by subcutaneously inoculating human gastric adenocarcinoma SGC-7901 cell strain into bare mouse, with a inoculation concentration of 1-3×10^6. After establishing the transplanted tumor, it was passaged in bare mouse for three generations prior to use.
(§2) The eugonic tumor tissue was cut into about 1.5 mm^3. It was inoculated into hypodermis in right armpit of bare mouse under aseptic condition. The diameter of the transplanted tumor of the bare mouse was measured by vernier caliper. After the tumor grew to 100-300 mm^3, the mice were grouped randomly. The effect of reagents used for inhibiting tumor was observed dynamically through measuring the diameter of tumor. The diameter of tumor was measured 3 times per week, while measuring the weight of mice. With respect to the mice in an administration group, the mice were administrated by intravenous injection 6 times per week: with respect to the mice in a positive control group, the mice were administrated by intravenous injection 2 times per week; with respect to the mice in a negative control group, the mice were administrated by same amount of physiological saline at the same time.
(§3) The tumor volume (TV) was calculated as follows:
in which a and b represent length and width, respectively. The relative tumor volume (RTV) was calculated based on the measured results: RTV=Vt/V0, in which V0 represents the tumor volume measured at the first administration (d0), and Vt represents the tumor volume measured at each measurement. The factor for estimating the effect against tumor is the relative tumor proliferation T/C (%) as follows:
(§4) TRTV: RTV for treating group; CRTV: RTV for negative control group.
100 mg of p43 protein, obtained from Sine Laboratory in Shanghai, China, was dissolved in physiological saline to form a solution of 1 mg/ml.
(§5) The solution was administrated to bare mouse by intravenous injection in 2.5 mg p43 protein/kg weight, 5 mg p43 protein/kg weight, and 10 mg p43 protein/kg weight.

[2] = tested on: human colon carcinoma HCT-116; assay: Transplanted tumor of human colon carcinoma HCT-116 in bare mouse
Source text: as §1
(§6) Number of animal in each group: 10 mice for negative control group and 5 mice for treating group
Transplanted tumor of human colon carcinoma HCT-116 in bare mouse was established by inoculating human colon carcinoma HCT-116 cell strain into hypoderm of bare mouse, with a inoculation concentration of 1-3×10^6. After establishing the transplanted tumor, it was passaged in bare mouse for three generations prior to use.
as §2, with “through the method of” for “through”, “week,” for “week:”
as §3
(§7) in which a and b represent length and width, respectively. The relative tumor volume (RTV) was calculated depending on the measured results: RTV=Vt/V0, in which V0 represents the tumor volume measured at the first administration (d0), and Vt represents the tumor volume measured at each measurement. The factor for estimating the effect against tumor is the relative tumor growth T/C (%) as follows:
as §4
100 mg of p43 protein, available from Sine Laboratory in Shanghai, China, was dissolved in physiological saline to form a solution of 1 mg/ml.
as §5

[3] = tested on: human nasopharyngeal carcinoma CNE-1; assay: Transplanted tumor of human nasopharyngeal carcinoma CNE-1 in bare mouse
Source text: as §1, §6
Transplanted tumor of human nasopharyngeal carcinoma CNE-1 in bare mouse was established by inoculating human nasopharyngeal carcinoma CNE-1 cell strain into hypoderm of bare mouse, with a inoculation concentration of 1-3×10^6. After establishing the transplanted tumor, it was passaged in bare mouse for three generations prior to use.
as §2, with “fro” for “for”, “through the method of” for “through”, “week;” for “week:”
as §3, §7, §4
100 mg of p43 protein, available from Sine Laboratory in Shanghai, China, was dissolved in physiological saline to form a solution of 1 mg/ml. […]

[4] = 2.5 mg/kg intravenous injection 6 times per week
[5] = 2.5 mg/kg intravenous injection
[6] = 5 mg/kg intravenous injection 6 times per week
[7] = 10 mg/kg intravenous injection 6 times per week

B1: P43: accessory factor of tRNA synthetase of mammals; single-chain protein of 312 amino acids; obtained from Sine Laboratory, Shanghai (protein, UniProt Q12904 2-312, looked up)
Aminoacyl tRNA synthase …: ANNDAVLKRLEQKGAEADQIIEYLKQQVSLLKEKAILQATLREEKKLRVENAKLKKEIEELKQELIQAEIQNGVKQIPFPSGTPLHANSMVSENVIQSTAVTTVSSGTKEQIKGGTGDEKKAKEKIEKKGEKKEKKQQSIAGSADSKPIDVSRLDLRIGCIITARKHPDADSLYVEEVDVGEIAPRTVVSGLVNHVPLEQMQNRMVILLCNLKPAKMRGVLSQAMVMCASSPEKIEILAPPNGSVPGDRITFDAFPGEPDKELNPKKKIWEQIQPDLHTNDECVATYKGVPFEVKGKGVCRAQTMSNSGIK
RTV [1, 4]: 17.14 ± 7.25
T/C (%) [1, 4]: 81.7%
TV d 21 [1, 4]: 2400 ± 360
Weight (g) Final [1, 4]: 26.7 ± 1.7 g
Weight (g) First [1, 4]: 20.3 ± 0.9 g
TV d 0 [1, 5]: 140 ± 73
RTV [1, 6]: 11.37 ± 6.3
T/C (%) [1, 6]: 54.2%
TV d 21 [1, 6]: 1648 ± 102
Weight (g) Final [1, 6]: 25.1 ± 1.9 g
Weight (g) First [1, 6]: 20.5 ± 0.7 g
TV d 0 ([1]; 5 mg/kg intravenous injection): 146 ± 72
RTV [1, 7]: 12.99 ± 5.14
T/C (%) [1, 7]: 61.9%
TV d 21 [1, 7]: 1715 ± 168
Weight (g) Final [1, 7]: 25.4 ± 2.8 g
Weight (g) First [1, 7]: 20.7 ± 0.6 g
TV d 0 ([1]; 10 mg/kg intravenous injection): 132 ± 34
side effect ([1]; SGC-7901 bearing bare mouse, 2.5, 5 and 10 mg/kg intravenous injection): without any obvious side effect
inhibition on growth of transplanted tumor ([1]; SGC-7901 in bare mouse, 2.5, 5 and 10 mg/kg intravenous injection): significant inhibition
RTV [2, 4]: 5.01 ± 0.92
T/C (%) [2, 4]: 84.5%
TV d 21 [2, 4]: 822 ± 145
Weight (g) Final [2, 4]: 24.1 ± 1.5 g
Weight (g) First [2, 4]: 20.7 g
TV d 0 [2, 5]: 164 ± 48
RTV [2, 6]: 4.51 ± 0.75
T/C (%) [2, 6]: 76.0%
TV d 21 [2, 6]: 703 ± 189
Weight (g) Final [2, 6]: 23.9 ± 2.2 g
Weight (g) First [2, 6]: 21.3 g
TV d 0 ([2]; 5 mg/kg intravenous injection): 156 ± 39
RTV [2, 7]: 4.73 ± 1.01
T/C (%) [2, 7]: 79.7%
T/C (%) ([2]; 10 mg/kg intravenous injection 6 times per week, listed as p43): 79.79%
TV d 21 [2, 7]: 761 ± 211
Weight (g) Final [2, 7]: 23.5 ± 2.1 g
Weight (g) First [2, 7]: 20.9 g
TV d 0 ([2]; 10 mg/kg intravenous injection): 161 ± 52
side effect ([2]; HCT-116 bearing bare mouse, 2.5, 5 and 10 mg/kg intravenous injection): without any obvious side effect
inhibition on growth of transplanted tumor ([2]; HCT-116 in bare mouse, 2.5, 5 and 10 mg/kg intravenous injection): non-significant inhibition
RTV [3, 4]: 13.43 ± 5.64
T/C (%) [3, 4]: 88.9%
TV d 21 [3, 4]: 1921 ± 201
Weight (g) Final [3, 4]: 24.6 ± 2.4 g
Weight (g) First [3, 4]: 20.5 ± 1.3 g
TV d 0 [3, 5]: 143 ± 70
RTV [3, 6]: 12.75 ± 5.12
T/C (%) [3, 6]: 84.4%
TV d 21 [3, 6]: 1708 ± 154
Weight (g) Final [3, 6]: 23.1 ± 1.8 g
Weight (g) First [3, 6]: 19.6 ± 0.8 g
TV d 0 ([3]; 5 mg/kg intravenous injection): 134 ± 48
RTV [3, 7]: 12.63 ± 4.88
T/C (%) [3, 7]: 83.6%
TV d 21 [3, 7]: 1856 ± 173
Weight (g) Final [3, 7]: 22.9 ± 2.3 g
Weight (g) First [3, 7]: 19.8 ± 1.1 g
TV d 0 ([3]; 10 mg/kg intravenous injection): 147 ± 63
side effect ([3]; CNE-1 bearing bare mouse, 2.5, 5 and 10 mg/kg intravenous injection): without any obvious side effect
inhibition on growth of transplanted tumor ([3]; CNE-1 in bare mouse, 2.5, 5 and 10 mg/kg intravenous injection): non-significant inhibition
